Experiments:
[1] = target: T1, Recombinant mouse HER3(ECD)/Fc chimera (mouse, UniProt Q61526 20-641); test: ELISA with purified IgG on murine HER3
T1 construct: Generated in house; also called murine HER3 (as a HER3-Fc fusion); murine HER3; not shown: Fc part and any linker or tag of the in-house chimera

[2] = target: T2, human HER3 on human cancer cells (human, UniProt P21860 20-1342); test: cell-based or functional assay
[3] = target: T2, human HER3 on human cancer cells; test: cell-based or functional assay; remark: listed apart in the source
[4] = target: T2, human HER3 on human cancer cells; test: cell-based or functional assay; remark: listed apart in the source
[5] = target: T3, Recombinant human HER3(ECD)/Fc chimera (human, UniProt P21860 20-643, biotinylated in the capture ELISA of section 1.9); test: HRG-HER3 ELISA: plate coated with HRG, antibody dilutions premixed with 5 ug/ml recombinant HER3, bound HER3 detected by anti-His HRP; blocked ligand HRG
T3 construct: extracellular domain; Bought (R&D Systems); The ELISA sections say only 'recombinant HER3 protein' / 'biotinylated HER3 protein' / 'recombinant HER3'; also called recombinant HER3 protein; biotinylated HER3 protein; not shown: Fc, linker peptide and C-terminal 6x Histidine-tag

[6] = target: T2, human HER3 on human cancer cells; test: cell-based or functional assay; remark: listed apart in the source
[7] = target: T2, human HER3 on human cancer cells; test: cell-based or functional assay; remark: listed apart in the source
[8] = target: T2, human HER3 on human cancer cells; test: cell-based or functional assay; remark: listed apart in the source
[9] = target: T2, human HER3 on human cancer cells; test: cell-based or functional assay; remark: listed apart in the source
[10] = target: T2, human HER3 on human cancer cells; test: cell-based or functional assay; remark: listed apart in the source
[11] = target: T2, human HER3 on human cancer cells; test: cell-based or functional assay; remark: listed apart in the source
[12] = target: T2, human HER3 on human cancer cells; test: cell-based or functional assay; remark: listed apart in the source
[13] = target: T2, human HER3 on human cancer cells; test: cell-based or functional assay; remark: listed apart in the source
[14] = target: T3, Recombinant human HER3(ECD)/Fc chimera; test: Fab capture ELISA with biotinylated HER3
Protocol: (§1) Briefly, this capture ELISA involved coating individual wells of a 96-well Maxisorp Immunoplate with approximately 50 ng of a sheep anti-human Fd antibody (Biodesign International, ME) in a carbonate buffer at pH 8.5 overnight at 4° C. The next day, the plate was blocked with 3% BSA in PBS buffer for 1 h at room temperature. Fab supernatant was then added to the plate and incubated at room temperature for 1 hr. After washing, 0.1 μg of biotinylated HER3 protein was added to the well and the mixture was incubated for 1.5 h at room temperature. This was followed by incubation with neutravidin-horseradish peroxydase (HRP) conjugate (Pierce, Ill.) for approximately 40 min at room temperature. HRP activity was detected with tetra-methyl-benzidine (TMB) substrate and the reaction quenched with 0.2 M H₂SO₄. Plates were read at 450 nm.
(§2) The Fab concentration was determined by comparing the ELISA signals with the signals generated by the reference Fab.

[15] = target: T3, Recombinant human HER3(ECD)/Fc chimera; test: Fab capture ELISA with biotinylated HER3, against GL-P6
Protocol: as §1, §2

| BT474 6-day growth % Max inhibition [2] [%] | BT474 clonogenic assay % Max inhibition [2] [%] | BT474 pAKT assay % Max inhibition [2] [%] | T47D HRG inducible pHer3 % Max inhibition [2] [%] | Binder | further results |
| --- | --- | --- | --- | --- | --- |
| 54.5 | 81.3 | 62 | 84 | 1A4 antibody, human IgG1 (antibody, V domains shown, IgG1, lambda) VH: EVQLLESGGGLVQPGGSLRLSCAASGFTFSYYYMQWVRQAPGKGLEWVSYIGSSGGVTNYADSVKGRFTISRDNSKNTLYLQMNSLRAEDTAVYYCARVGLGDAFDIWGQGTMVTVSS VL: QSVLTQPPSASGTPGQRVTISCSGSSSNIGLNYVSWYQQLPGTAPKLLISRNNQRPSGVPDRFSGSKSGTSASLAISGLRSEDEADYYCAAWDDSPPGEAFGGGTKLTVL | binding result [1]: binds |
| – | – | – | – | 2C2-YTE monoclonal antibody (antibody, human IgG1, V domains shown) VH: EVQLLESGGGLVQPGGSLRLSCAASGFTFSYYYMQWVRQAPGKGLEWVSYIGSSGGVTNYADSVKGRFTISRDNSKNTLYLQMNSLRAEDTAVYYCARVGLGDAFDIWGQGTMVTVSS VL: QSVLTQPPSASGTPGQRVTISCSGSLSNIGLNYVSWYQQLPGTAPKLLISRNNQRPSGVPDRFSGSKSGTSASLAISGLRSEDEADYYCAAWDDSPPGEAFGGGTKLTVL | IC50 (read off the curve); suppression of pAKT (Meso-Scale Discovery assay), BT-474 cells [3]: ~0.003 ug/ml; IC50 (read off the curve); suppression of pHER3 (pHER3 ELISA), BT-474 cells [4]: ~0.003 ug/ml |
| 46 | 79.8 | 64 | 75 | Clone 16 antibody (CL16), human IgG1 (antibody, V domains shown, also called parental IgG; Clone 16-PA) VH: EVQLLESGGGLVQPGGSLRLSCAASGFTFSYYYMQWVRQAPGKGLEWVSYIGSSGGVTNYADSVKGRFTISRDNSKNTLYLQMNSLRAEDTAVYYCARVGLGDAFDIWGQGTMVTVSS VL: QYELTQPPSASGTPGQRVTMSCSGSSSNIGLNYVSWYQQLPGTAPKLLISRNNQRPSGVPDRFSGSKSGTSASLAISGLRSEDEADYYCAAWDDSLSGEVFGGGTKLTVL | IC50 (read off the curve) [5]: ~0.6 µg/mL |
| – | 87.2 | 61 | 85 | 2C2 monoclonal antibody, human IgG1 (antibody, V domains shown) VH: EVQLLESGGGLVQPGGSLRLSCAASGFTFSYYYMQWVRQAPGKGLEWVSYIGSSGGVTNYADSVKGRFTISRDNSKNTLYLQMNSLRAEDTAVYYCARVGLGDAFDIWGQGTMVTVSS VL: QSVLTQPPSASGTPGQRVTISCSGSLSNIGLNYVSWYQQLPGTAPKLLISRNNQRPSGVPDRFSGSKSGTSASLAISGLRSEDEADYYCAAWDDSPPGEAFGGGTKLTVL | IC50; suppression of pAKT (Meso-Scale Discovery assay), MKN45 cells [6]: 2.9 ng/ml; IC50; suppression of HRG-induced pHER3 (pHER3 ELISA), MCF-7 cells [7]: 8.4 ng/ml; IC50; suppression of pHER3 (pHER3 ELISA), EGFR-TKI (gefitinib)-resistant HCC827 cells [8]: 3.5 ng/ml; HRG-induced pHER3 ELISA in MCF-7 cells; potency by IC50 against MM and AMG [9]: ~5 fold; IC50; suppression of pAKT (Meso-Scale Discovery assay), Kato III cells [10]: 0.9 ng/ml; IC50; suppression of pAKT (Meso-Scale Discovery assay), BT-474 cells [3]: 0.003 ug/ml; IC50; growth suppression (CellTiter-Glo, 6 days), HMCB melanoma cells [11]: 0.027 µg/mL; IC50; suppression of pHER3 (pHER3 ELISA), BT-474 cells [4]: 0.004 ug/ml; IC50; suppression of pHER3 (pHER3 ELISA), HCC827 cells [12]: 2 ng/ml; IC50; suppression of pHER3 (pHER3 ELISA), Kato III cells [13]: 0.8 ng/ml |
| – | – | – | – | clone 6E3 Fab (Fab, V domains shown, Fab, single VL mutant (S27L) of GL-P6) VH: EVQLLESGGGLVQPGGSLRLSCAASGFTFSYYYMQWVRQAPGKGLEWVSYIGSSGGVTNYADSVKGRFTISRDNSKNTLYLQMNSLRAEDTAVYYCARVGLGDAFDIWGQGTMVTVSS VL: not shown | binding result [14]: binds |
| – | – | – | – | clone 4C4 Fab (Fab, V domains shown, Fab, single VL mutant (S96aR) of GL-P6) VH: EVQLLESGGGLVQPGGSLRLSCAASGFTFSYYYMQWVRQAPGKGLEWVSYIGSSGGVTNYADSVKGRFTISRDNSKNTLYLQMNSLRAEDTAVYYCARVGLGDAFDIWGQGTMVTVSS VL: not shown | fold binding improvement [15]: 8.6 fold |
| 47.5 | 87.1 | 62 | 85 | P2B11 antibody, human IgG1 (antibody, V domains shown) VH: EVQLLESGGGLVQPGGSLRLSCAASGFTFSYYYMQWVRQAPGKGLEWVSYIGSSGGVTNYADSVKGRFTISRDNSKNTLYLQMNSLRAEDTAVYYCARVGLGDAFDIWGQGTMVTVSS VL: not shown | – |
| 49 | 80.4 | 62 | 86 | 2F10 antibody, human IgG1 (antibody, V domains shown) VH: EVQLLESGGGLVQPGGSLRLSCAASGFTFSYYYMQWVRQAPGKGLEWVSYIGSSGGVTNYADSVKGRFTISRDNSKNTLYLQMNSLRAEDTAVYYCARVGLGDAFDIWGQGTMVTVSS VL: QSVLTQPPSASGTPGQRVTISCSGSSSNIGLNYVSWYQQLPGTAPKLLISRNNQRPSGVPDRFSGSKSGTSASLAISGLRSEDEADYYCAAWDDSPSGEAFGGGTKLTVL | – |
| – | – | – | – | clone 8A3 Fab (Fab, V domains shown, Fab, single VL mutant (S96aI) of GL-P6) VH: EVQLLESGGGLVQPGGSLRLSCAASGFTFSYYYMQWVRQAPGKGLEWVSYIGSSGGVTNYADSVKGRFTISRDNSKNTLYLQMNSLRAEDTAVYYCARVGLGDAFDIWGQGTMVTVSS VL: not shown | fold binding improvement [15]: 3.5 fold |
| – | – | – | – | clone 2D1 Fab (Fab, V domains shown, Fab, single VL mutant (V97A) of GL-P6) VH: EVQLLESGGGLVQPGGSLRLSCAASGFTFSYYYMQWVRQAPGKGLEWVSYIGSSGGVTNYADSVKGRFTISRDNSKNTLYLQMNSLRAEDTAVYYCARVGLGDAFDIWGQGTMVTVSS VL: not shown | binding result [14]: binds |
| 48.1 | 79.2 | 66 | 86 | 3E1 antibody, human IgG1 (antibody, V domains shown, IgG1, lambda) VH: EVQLLESGGGLVQPGGSLRLSCAASGFTFSYYYMQWVRQAPGKGLEWVSYIGSSGGVTNYADSVKGRFTISRDNSKNTLYLQMNSLRAEDTAVYYCARVGLGDAFDIWGQGTMVTVSS VL: QSVLTQPPSASGTPGQRVTISCRGSSSNIGLNYVSWYQQLPGTAPKLLISRNNQRPSGVPDRFSGSKSGTSASLAISGLRSEDEADYYCAAWDDSPPGEAFGGGTKLTVL | binding result [1]: binds |
| – | – | – | – | clone 4H6 Fab (Fab, V domains shown, Fab, single VL mutant (S24R) of GL-P6) VH: EVQLLESGGGLVQPGGSLRLSCAASGFTFSYYYMQWVRQAPGKGLEWVSYIGSSGGVTNYADSVKGRFTISRDNSKNTLYLQMNSLRAEDTAVYYCARVGLGDAFDIWGQGTMVTVSS VL: not shown | binding result [14]: binds |

— patent publication US20160237162A1 (AstraZeneca / MedImmune, published 2016)
